For test [1], the target named is WN peptide (…) HLA-E single chain trimer (soluble, biotinylated) (human, biotin (AviTag)). Put plainly: SPR; steady state, Biacore T200, biotinylated pMHC SCT immobilised at about 400 RU on a Series S SA chip, CD94/NKG2x as analyte 0.1-102.4 μM, 10 μL/min, 25 °C, HBS-EP+; reference HLA-DR401; approximate KD by Biacore software. The conditions noted are these: both partners purified. On the technique in general: SPR reads the build-up and loss of mass on a sensor chip optically.

Test [2] concerns the target … peptide HLA-E single chain trimer (soluble, biotinylated) (human, biotin (AviTag)). Description: SPR. The conditions noted are these: both partners purified.

B1: CD94/NKG2C single-chain fusion protein (human NKG2C ectodomain - GGSGGS - human CD94 ectodomain), produced in Hi5 cells for SPR (receptor)
chain: not shown
notes: also called CD94/NKG2x
Broadly, the Kd is the free concentration of one partner at which half of the binding sites on the other are occupied at equilibrium, for simple one-to-one binding. Low values mean a tighter complex, high ones a looser complex. For the molecule B1, the Kd in test [1] is approximately 17.4 µM; in test [2], approximately 21.4 µM.

B2: CD94/NKG2A single-chain fusion protein (human NKG2A ectodomain - GGSGGS - human CD94 ectodomain), produced in Hi5 cells for SPR (receptor)
chain: not shown
notes: also called CD94/NKG2x
As to B2, the Kd was approximately 41.5 µM in test [1] and approximately 8.2 µM in test [2].

(Values after publication PMC10412585, “High-throughput characterization of HLA-E-presented CD94/NKG2x ligands reveals peptides which modulate NK cell activation” (Nature Communications, 2023).)
